Experimental data as given in article PMC9169858 (Proceedings of the National Academy of Sciences of the …, 2022).

Molecular target: SARS-CoV-2 main protease (M^pro), pGEX4T-1 construct, GST removed by thrombin (SARS-CoV-2, Wuhan-Hu-1 (MN908947.3))
Assay: BLI
Conditions: both partners purified

Row | Binder | binding result
1 | NB2E3 (VHH) VHH: QVQLQESGGGSVQAGGSLRLSCAVSGFIATSCALGWFRQAPGKEREGIATITTDGTTYYVDSVKGRFTISQDNAKNTVALQMNSLKPEDTAMYYCKLCCSGQYCAWGQGTQVTVSS | binds
2 | NB1D10 (VHH) VHH: QVQLQESGGGSVQAGGSLRLSCAVSGYSYCNYDLGWFRQAPGKEREGIATIDSDGNTYYVDSVKGRFTISQDNAKNTVALQMNSLKPEDTAMYYCKVGSIASSVPEVSCPPSAPFGYWGQGTQVTVSS | binds
